The target in the experiment is integrin alpha v beta 3 present at the surface of the endothelial cells (CPAE) (bovine (calf pulmonary artery endothelial cells)) (UniProt P80746). The experiment is described as follows: cell-based or functional assay.
Sequence of UniProt P80746 (P80746 31-1048): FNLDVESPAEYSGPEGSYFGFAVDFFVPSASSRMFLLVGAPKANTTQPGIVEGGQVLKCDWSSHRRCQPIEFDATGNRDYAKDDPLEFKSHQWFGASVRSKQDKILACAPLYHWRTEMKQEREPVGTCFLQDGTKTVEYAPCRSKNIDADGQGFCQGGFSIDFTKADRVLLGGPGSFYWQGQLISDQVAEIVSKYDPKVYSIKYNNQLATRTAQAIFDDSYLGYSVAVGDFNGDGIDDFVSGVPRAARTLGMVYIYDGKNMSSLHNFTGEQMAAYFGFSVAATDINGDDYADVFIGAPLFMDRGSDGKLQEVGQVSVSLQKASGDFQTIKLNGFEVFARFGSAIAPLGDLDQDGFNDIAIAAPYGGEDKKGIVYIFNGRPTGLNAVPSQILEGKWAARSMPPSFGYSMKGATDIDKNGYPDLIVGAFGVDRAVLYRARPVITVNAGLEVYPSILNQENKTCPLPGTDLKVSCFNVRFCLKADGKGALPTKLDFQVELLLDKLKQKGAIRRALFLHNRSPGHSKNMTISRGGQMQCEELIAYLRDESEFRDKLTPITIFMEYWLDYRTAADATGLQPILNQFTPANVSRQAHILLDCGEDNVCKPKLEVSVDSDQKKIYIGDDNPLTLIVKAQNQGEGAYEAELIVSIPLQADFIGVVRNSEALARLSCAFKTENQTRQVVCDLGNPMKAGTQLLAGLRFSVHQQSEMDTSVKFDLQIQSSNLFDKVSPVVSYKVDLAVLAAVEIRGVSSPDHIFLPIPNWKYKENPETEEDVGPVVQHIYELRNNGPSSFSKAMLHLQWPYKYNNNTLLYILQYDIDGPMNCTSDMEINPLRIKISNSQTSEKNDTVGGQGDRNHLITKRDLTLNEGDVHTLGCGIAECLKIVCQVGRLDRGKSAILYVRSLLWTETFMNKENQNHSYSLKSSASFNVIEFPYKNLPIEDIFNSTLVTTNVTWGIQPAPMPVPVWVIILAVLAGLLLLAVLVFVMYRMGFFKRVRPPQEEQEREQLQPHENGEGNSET

Regarding “1.4-kDa fragment of AMEP constituted of 12 amino acids with the sequence RGDC (peptide)”, the inhibition of the adhesion of the cells on fibrinogen came out at 50% and the inhibition of the adhesion of the cells on vitronectin amounted to 49%.

Values taken from patent US20040171549A1.
